The values that follow come from patent US20090170219, “Nucleic acid capable of binding to immunoglobulin G and use thereof” (published 2009).

The target in data set [1] is T1, IgG1 (human, UniProt P01857-1 P01857-1:1-330). The experiment in a line: SPR; +++ in Table 4; binding not reduced in 500 mM NaCl, 2 mM MgCl2. As to conditions: tags: Calbiochem; chain copies: 2.
The target in data set [2] is T1, IgG1. The experiment in a line: SPR; text says higher than SEQ 17, table shows equal. To be noted: tags: Calbiochem; chain copies: 2. The protocol: (§1) Used for the measurements was BIAcore 2000 manufactured by BIAcore. Used as the sensor chip was the SA chip having streptavidin immobilized thereon. Bound thereto was about 1000 RU of 16-residue Poly dT having biotin bound to the 5′ end thereof. The RNA for use as the ligand had 16-residue Poly A added to the 3′ end thereof, and immobilized to the SA chip via a bond between dT and A. The amount immobilized was adjusted to about 1000 RU by injecting 60 μL at a concentration of 0.01 μg/μL. 70 μL of IgG-Fc for analyte (manufactured by Athens Research & Technology), adjusted to 0.6 μM, was injected. The running buffer used had the same components as those of the solution A used in SELEX.
The RNAs were prepared by chemical synthesis (manufactured by Gene Design). Their binding affinities were measured by a surface plasmon resonance method as in Example 1. Used as the IgG was human IgG1 (manufactured by Calbiochem).
In general terms: In SPR one partner is held on a chip, and binding of the other changes the refractive index at the surface.

Another data set deals with IgG (rabbit, UniProt P01870 P01870:1-323). The experiment in a line: SPR. As to conditions: tags: Zymed Laboratories, chain copies: 2, label: 3' A16 tail for immobilisation. The protocol: as §1
(§2) Whether or not the prepared RNA aptamers also have binding affinity for subclasses of IgG other than human IgG1 or for IgG of animal species other than humans was determined using a surface plasmon resonance method. Measurements were performed in the same manner as Example 1 by immobilizing a nucleic acid having 16-residue Poly A added thereto via an A-pT bond, and injecting IgG thereto. Used as the RNA aptamers were the nucleic acids shown by SEQ ID NO:1 and 17. Used as the antibodies were human IgG1 (manufactured by Calbiochem), human IgG2 (manufactured by Calbiochem), human IgG3 (manufactured by Calbiochem), human IgG4 (manufactured by Calbiochem), mouse IgG1 (manufactured by Chemicon International), mouse IgG2a (manufactured by Chemicon International), mouse IgG2b (manufactured by Zymed Laboratories), mouse IgG3 (manufactured by Bethyl Laboratories), rat IgG1 (manufactured by R & D Systems), rat IgG2a. (manufactured by Zymed Laboratories), rat IgG2b. (manufactured by Zymed Laboratories), rat IgG2c (manufactured by UK-Serotec), rabbit IgG (manufactured by Zymed Laboratories), bovine IgG1 (manufactured by Bethyl Laboratories), bovine IgG2 (manufactured by Bethyl Laboratories), chicken IgG (manufactured by Rockland), dog IgG (manufactured by Rockland), cat IgG (manufactured by Bethyl Laboratories), guinea pig IgG (manufactured by Biogenesis), hamster IgG (manufactured by Rockland), and swine IgG (manufactured by Rockland).

In the next data set the target is IgG2b (mouse, UniProt P01867-2 P01867-2:98-335). The data set is described as follows: SPR. To be noted: tags: Zymed Laboratories, chain copies: 2, label: 3' A16 tail for immobilisation. The protocol: as §1, §2
A further data set addresses IgG2a (mouse, UniProt P01863 P01863:98-330). The experiment in a line: SPR. To be noted: tags: Chemicon International, chain copies: 2, label: 3' A16 tail for immobilisation. The protocol: as §1, §2
In a further data set the target is IgG2c (rat, UniProt P20762 P20762:1-329). The experiment in a line: SPR. As to conditions: tags: UK-Serotec, chain copies: 2, label: 3' A16 tail for immobilisation. The protocol: as §1, §2
The next data set addresses IgG2 (human, UniProt P01859-1 P01859-1:99-326). The data set is described as follows: SPR. As to conditions: tags: Calbiochem, chain copies: 2, label: 3' A16 tail for immobilisation. The protocol: as §1, §2
In a further data set the target is IgG3 (human, UniProt P01860-1 P01860-1:99-377). The data set is described as follows: SPR. To be noted: tags: Calbiochem, chain copies: 2, label: 3' A16 tail for immobilisation. The protocol: as §1, §2
Another data set deals with IgG4 (human, UniProt P01861-1 P01861-1:99-327). The experiment in a line: SPR. As to conditions: tags: Calbiochem, chain copies: 2, label: 3' A16 tail for immobilisation. The protocol: as §1, §2
Data set [3] concerns the target T1, IgG1. The experiment in a line: SPR; solution A; short aptamers fit bivalent 1:2 model better. To be noted: tags: Calbiochem; chain copies: 2; label: 3' A16 tail for immobilisation.
In the next data set the target is Protein A (UniProt P02976 P02976:37-485). The data set is described as follows: SPR; control; Protein A bound only when IgG1 was on the aptamer. To be noted: tags: MP Biomedicals; label: 3' A16 tail for immobilisation; GGUGCU bulge. The protocol: as §1
Data set [4] concerns the target T1, IgG1. The experiment in a line: SPR; solution A: 145 mM NaCl, 5.4 mM KCl, 1.8 mM CaCl2, 0.8 mM MgCl2, 20 mM Tris pH 7.6. As to conditions: tags: Calbiochem; chain copies: 2; label: 3' A16 tail for immobilisation; GGUGCU bulge. The protocol:
as §1
The dissociation constant was determined by immobilizing an RNA having 16-residue PolyA added to the 3′ end thereof onto a sensor chip via an A-dT bond, injecting different concentrations of IgG (0.6 μM to 0.05 μM), and performing surface plasmon resonance.

T1 sequence (P01857 other isoform, or with tags, fused parts or gaps): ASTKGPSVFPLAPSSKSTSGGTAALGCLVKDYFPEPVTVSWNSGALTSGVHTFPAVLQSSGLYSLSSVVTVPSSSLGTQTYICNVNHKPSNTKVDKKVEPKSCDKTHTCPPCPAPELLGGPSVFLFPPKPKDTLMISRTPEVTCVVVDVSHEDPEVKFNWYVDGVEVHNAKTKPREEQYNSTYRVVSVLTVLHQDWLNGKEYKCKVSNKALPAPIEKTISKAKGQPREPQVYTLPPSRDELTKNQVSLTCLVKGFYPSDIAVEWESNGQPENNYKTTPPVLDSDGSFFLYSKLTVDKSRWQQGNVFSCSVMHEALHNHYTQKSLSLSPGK
Chain of IgG2 (P01859 other isoform, or with tags, fused parts or gaps): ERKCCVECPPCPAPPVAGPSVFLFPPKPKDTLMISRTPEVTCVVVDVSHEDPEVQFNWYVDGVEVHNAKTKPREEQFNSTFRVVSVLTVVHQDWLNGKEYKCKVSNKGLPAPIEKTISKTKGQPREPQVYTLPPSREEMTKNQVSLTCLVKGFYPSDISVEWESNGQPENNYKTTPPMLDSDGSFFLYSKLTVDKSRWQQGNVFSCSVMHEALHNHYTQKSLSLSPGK
Chain of IgG (P01870 whole entry, one chain of several): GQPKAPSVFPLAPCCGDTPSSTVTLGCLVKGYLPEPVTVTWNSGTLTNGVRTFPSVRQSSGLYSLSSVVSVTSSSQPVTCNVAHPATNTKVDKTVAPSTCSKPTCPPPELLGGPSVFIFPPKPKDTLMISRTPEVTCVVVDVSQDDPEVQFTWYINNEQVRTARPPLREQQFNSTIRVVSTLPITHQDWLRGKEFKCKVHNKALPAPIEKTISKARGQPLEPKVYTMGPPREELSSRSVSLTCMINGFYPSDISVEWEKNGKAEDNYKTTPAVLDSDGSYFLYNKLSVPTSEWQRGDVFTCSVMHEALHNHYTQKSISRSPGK
Chain of IgG4 (P01861 other isoform, or with tags, fused parts or gaps): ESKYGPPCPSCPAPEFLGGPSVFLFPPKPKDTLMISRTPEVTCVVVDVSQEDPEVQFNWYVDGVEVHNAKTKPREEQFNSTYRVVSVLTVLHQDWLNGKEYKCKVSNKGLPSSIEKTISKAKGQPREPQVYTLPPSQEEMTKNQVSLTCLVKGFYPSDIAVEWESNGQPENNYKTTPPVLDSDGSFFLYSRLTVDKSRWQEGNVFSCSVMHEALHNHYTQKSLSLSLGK
Chain of IgG2a (P01863 98-330, one chain of several): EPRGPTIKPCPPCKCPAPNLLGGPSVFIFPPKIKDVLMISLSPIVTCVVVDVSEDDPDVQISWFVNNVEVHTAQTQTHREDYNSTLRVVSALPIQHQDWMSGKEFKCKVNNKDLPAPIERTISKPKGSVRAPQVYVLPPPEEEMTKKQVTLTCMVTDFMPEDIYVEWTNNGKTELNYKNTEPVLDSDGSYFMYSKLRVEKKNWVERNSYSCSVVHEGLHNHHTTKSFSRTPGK
Chain of IgG2c (P20762 whole entry, one chain of several): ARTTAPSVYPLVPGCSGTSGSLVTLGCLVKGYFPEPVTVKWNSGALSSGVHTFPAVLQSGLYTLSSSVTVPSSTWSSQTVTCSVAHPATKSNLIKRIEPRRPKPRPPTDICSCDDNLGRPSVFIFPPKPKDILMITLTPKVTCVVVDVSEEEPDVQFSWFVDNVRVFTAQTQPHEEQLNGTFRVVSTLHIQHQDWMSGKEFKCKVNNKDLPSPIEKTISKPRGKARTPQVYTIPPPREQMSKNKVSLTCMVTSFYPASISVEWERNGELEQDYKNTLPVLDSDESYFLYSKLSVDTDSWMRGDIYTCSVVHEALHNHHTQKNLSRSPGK
Chain of IgG2b (P01867 other isoform, or with tags, fused parts or gaps): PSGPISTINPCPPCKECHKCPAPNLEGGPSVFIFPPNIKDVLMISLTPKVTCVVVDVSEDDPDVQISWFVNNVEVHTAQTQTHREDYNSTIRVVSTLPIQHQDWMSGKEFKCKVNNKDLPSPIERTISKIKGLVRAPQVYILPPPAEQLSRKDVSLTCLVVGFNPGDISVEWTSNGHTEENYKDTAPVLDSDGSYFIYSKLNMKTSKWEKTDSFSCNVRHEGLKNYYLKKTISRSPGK
Chain of IgG3 (P01860 other isoform, or with tags, fused parts or gaps): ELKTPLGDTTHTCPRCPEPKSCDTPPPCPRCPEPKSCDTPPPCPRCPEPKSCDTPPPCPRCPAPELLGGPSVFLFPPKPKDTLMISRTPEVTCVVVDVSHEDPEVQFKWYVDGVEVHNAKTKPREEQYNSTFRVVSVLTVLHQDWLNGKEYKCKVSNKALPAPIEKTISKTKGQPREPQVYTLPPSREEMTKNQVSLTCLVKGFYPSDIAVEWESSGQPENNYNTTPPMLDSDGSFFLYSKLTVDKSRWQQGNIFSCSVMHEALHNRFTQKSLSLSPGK
Chain of Protein A (P02976 37-485, one chain of several): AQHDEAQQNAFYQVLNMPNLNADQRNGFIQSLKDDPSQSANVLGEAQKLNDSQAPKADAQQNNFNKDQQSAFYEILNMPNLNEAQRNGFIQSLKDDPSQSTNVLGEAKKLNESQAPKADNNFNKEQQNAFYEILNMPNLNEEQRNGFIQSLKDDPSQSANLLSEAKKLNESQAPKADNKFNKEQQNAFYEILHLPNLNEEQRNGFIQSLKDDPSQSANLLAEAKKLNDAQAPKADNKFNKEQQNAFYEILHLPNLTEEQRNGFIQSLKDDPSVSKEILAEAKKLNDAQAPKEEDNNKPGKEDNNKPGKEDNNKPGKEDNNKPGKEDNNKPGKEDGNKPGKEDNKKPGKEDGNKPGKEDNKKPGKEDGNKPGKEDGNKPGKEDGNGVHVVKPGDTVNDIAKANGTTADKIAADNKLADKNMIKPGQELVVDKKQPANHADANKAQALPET

B1: SEQ ID NO:17-7 (23F23) (mixed)
RNA: GGAGGUGCUCCGAAAGGAACUCCAAAAAAAAAAAAAAAA
modifications: deoxy G1 G2 C8 C10 C11 G12-A15 A18 A19 C22 C23 and A16 tail; 2'-F U6 U9 C20 U21; rest 2'-OH
As to B1, the binding result with IgG1 [1] is given as “binds”.

B2: SEQ ID NO:17-9 (23F32) (mixed)
RNA: GGAGGUGCUCCGAAAGGAACUCCAAAAAAAAAAAAAAAA
modifications: as 17-7 with 2'-OMe G16
Consider B2, for which the binding result with IgG1 [2] is “binds”.

B3: SEQ ID NO:17 (ssRNA)
RNA: GGAGGUGCUCCGAAAGGAACUCC
modifications: 2'-F at all pyrimidines
As for B3, the binding result is reported as “no binding” with IgG; “no binding” in the data set with IgG2b; “no binding” with IgG2a; “no binding” with IgG2c; “binds” with IgG2; “binds” in the data set with IgG3. The binding result with IgG4 is “binds”. Moreover, the Kd with IgG1 [3] was found to be 10 nM.

B4: SEQ ID NO:1 (ssRNA)
RNA: GGGACACAAUGGACGAGUUACAGGUGCUCCAUCAACAAAAUGUUACAUGGAACUGUAACGGCCGACAUGAGAG
modifications: 2'-F at all pyrimidines
For B4, the binding result with IgG (GGUGCU bulge) is “no binding”; in the data set with IgG2b (GGUGCU bulge) it was “no binding”; in the data set with IgG2a (GGUGCU bulge) it was “no binding”; with IgG2c (GGUGCU bulge), “no binding”; in the data set with IgG2 (GGUGCU bulge), “binds”; in the data set with IgG3 (GGUGCU bulge), “binds”. The binding result is given as “binds” in the data set with IgG4 (GGUGCU bulge) and “no binding” with Protein A. This molecule also gave a Kd with IgG1 [4] of 0.3 nM.
